Columns and labels:
human AXL-ECD = molecular target: T1, human AXL-ECD (Homo sapiens, UniProt P30530); assay: Competition ELISA on AXL-ECD coated plates; assay type: binding; conditions: 10 μg/ml unbiotinylated, 0.5 μg/ml biotinylated antibody
T1 construct: purchased R&D Systems 154-AL
T1 sequence (P30530 26-451 limits assumed): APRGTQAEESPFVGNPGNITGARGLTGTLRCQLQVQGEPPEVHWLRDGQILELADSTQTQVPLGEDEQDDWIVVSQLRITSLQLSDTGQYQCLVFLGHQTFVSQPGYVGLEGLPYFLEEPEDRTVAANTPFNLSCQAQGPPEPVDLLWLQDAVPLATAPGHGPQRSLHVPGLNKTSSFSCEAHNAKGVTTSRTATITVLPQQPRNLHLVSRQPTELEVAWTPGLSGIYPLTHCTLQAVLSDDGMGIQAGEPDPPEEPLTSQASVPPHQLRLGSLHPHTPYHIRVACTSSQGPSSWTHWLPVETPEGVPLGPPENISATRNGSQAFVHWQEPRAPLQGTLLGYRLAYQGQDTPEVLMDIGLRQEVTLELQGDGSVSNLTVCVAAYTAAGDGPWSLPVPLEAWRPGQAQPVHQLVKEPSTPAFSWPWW
Protocol: Therefore binding of biotinylated anti-AXL antibodies to AXL-ECD domain-coated plates preincubated with anti-AXL antibodies was determined in a competition ELISA. […] On day 1, black 96 well Maxi-Sorp plates (Nunc) were coated with 100 μl/well of 1 μg/ml human AXL-ECD (R&D Systems #154-AL) in PBS over night at 4° C. […] After washing 6× with wash buffer (PBS, 0.1% TWEEN-20), 80 μl/well AP-conjugated Streptavidin (Chemicon #SA110) diluted 1:4,000 in blocking buffer were added, incubated for 20 min at room temperature washed again 6× with wash buffer and finally washed once with PBS. For detection, 100 μl/well Attophos substrate solution (Roche #11681982) were added. Using a Victor plate reader (Perkin Elmer), the fluorescence of each well was collected at an excitation wavelength of 430 nm an emission wavelength of 580 nm.

p42/p44 MAP-Kinase [1] = assay: p42/p44 MAP-Kinase phosphorylation ELISA; assay type: cell-based, human; conditions: 10 μg/ml antibody, 400 ng/ml Gas6; CaSki cervical cancer cells
Protocol: Next, ELISA experiments were performed in order to investigate whether the rat anti-AXL antibodies of the invention are able to block ligand Gas6-mediated activation of p42/p44 MAP-Kinase. Gas6-mediated p42/p44 MAP-Kinase activation was detected by increased protein (Thr202/Tyr204) phosphorylation. In brief, on the first day, 2×10^4 cells per well were seeded in flat-bottom 96 well plates. The next day, normal growth medium was replaced by serum-free medium to starve cells for 36 h. […] Medium was flicked out and cells were fixed with 4% formaldehyde in PBS (pH 7.5) for 30 min at room temperature. Formaldehyde solution was removed and cells were washed twice with wash buffer (PBS, 0.1% Tween 20). Cells were quenched with 1% H2O2, 0.1% NaN3 in wash buffer and incubated for 20 min at room temperature. Afterwards, the quenching solution was removed, and cells were washed twice with wash buffer and blocked with PBS, 0.5% BSA for 4 h at 4° C. Anti-phospho-p42/p44 MAP Kinase (Thr202/Tyr204) primary antibody (polyclonal rabbit; Cell Signaling #9101) diluted 1:500 in PBS, 0.5% BSA, 5 mM EDTA was added over night at 4° C. On day 4, the antibody solution was removed and the plate was washed 3× with wash buffer. […] Tetramethylbenzidine (TMB, Calbiochem) was added and monitored at 620 nm.

p42/p44 MAP-Kinase [2] = assay: p42/p44 MAP-Kinase phosphorylation ELISA, rat versus chimeric antibody; assay type: cell-based, human; conditions: 50 ng/ml to 10 μg/ml antibody, 400 ng/ml Gas6; CaSki
Protocol: To additionally verify whether the rat anti-Axl antibodies of the invention and the corresponding chimeric anti-Axl antibodies of the invention were also able to inhibit Gash-induced activation of p42/p44 MAP-Kinase in CaSki cervical cancer cells to similar extent, ELISA experiments were performed. Here, Gas6-induced p42/p44 MAP-Kinase activation was detected by increased protein (Thr202/Tyr204) phosphorylation. In brief, on the first day, 2×10^4 cells per well were seeded in flat-bottom 96 well plates. The next day, normal growth medium was replaced by serum-free medium to starve cells for 24 h. Thereafter, cells were pre-incubated with 50 ng/ml, 100 ng/ml, 300 ng/ml, 750 ng/ml, 1 μg/ml, and 10 μg/ml of rat anti-Axl antibody 11B7 or chimeric anti-Axl antibody ch11B7 for 1 h at 37° C. and then treated with or without 400 ng/ml Gas6 (R&D Systems) for 10 min at 37° C. Medium was flicked out and cells were fixed with 4% formaldehyde in PBS (pH 7.5) for 30 min at room temperature. Formaldehyde solution was removed and cells were washed twice with wash buffer (PBS, 0.1% Tween 20). Cells were quenched with 1% H2O2, 0.1% NaN3 in wash buffer and incubated for 20 min at room temperature. […] Tetramethylbenzidine (TMB, Calbiochem) was added and monitored at 620 nm.

B1: 11B7: antagonistic rat anti-AXL monoclonal antibody, rat IgG1 (antibody, V domains shown)
VL: DIQMTQAPSSLPASLGDRVTITCRASQDIGNYLRWFQQKPGKSPRLMISGATNLAAGVPSRFSGSRSGSDYSLTISSLESEDMADYYCLQSKESPWTFGGGTKLELK
VH: EVQLQESGPGLVKPSQSLSLTCSVTGYSITSNYWGWIRKFPGDKMEWMGYITYSGSTSYNPSLKSRISITRDTSKNQFFLQLNSVTSEDTATYYCAITTFYYWGQGVMVTVSS
B1 was tested, and the “competition with antagonistic anti-AXL antibodies for binding to AXL-ECD” value (human AXL-ECD) was “compete with each other for the same or structurally adjacent epitopes”, the “ligand-mediated p42/p44 MAP-Kinase activation (phosphorylation)” value (p42/p44 MAP-Kinase [1]) was “able to reduce ligand-mediated p42/p44 MAP-Kinase activation” and the “Gas6-induced p42/p44 MAP-Kinase activation, concentration-dependent” value (p42/p44 MAP-Kinase [2]) was “able to block Gas6-induced activation of p42/p44 MAP-Kinase in CaSki cervical cancer cells to similar extent”.

Reference: patent publication US8933202B2, “AXL antibodies” (U3 Pharma GmbH, priority 2007, dated 2015)
